*1 amine or outer side, *2 acyl side, *3 side chain or, on linkers, in order; H or OH if unused. Bridges are numbered along the chain shown (N, C = ends). Where no end group is shown, it is not given here. [ ]: non-standard residue; d: D form. TATA = O=C(CC[*:1])N1CN(C(=O)CC[*:2])CN(C(=O)CC[*:3])C1; 2Nal = N[C@@H](Cc1ccc2ccccc2c1)C(=O)O; βAla = NCCC(=O)O; Sar = CNCC(=O)O

For assay [1], the target named is T1, Mouse EphA2 (Ecto) (Mouse, UniProt Q03145 26-538).
T1 construct: extracellular domain; Fluorescence polarisation assays; not shown: Fc fusion (R&D Systems 639-A2) or C-terminal polyHis (Sino Biological 50586-M08H)
Briefly: FP competition vs Reference Compound C.

The target of assay [2] is T2, Human EphA2 (Ecto), C-terminal polyHis (Human, UniProt P29317 24-537).
T2 construct: extracellular domain; R&D systems 3035-A2 or in-house
The assay can be described thus: FP competition vs Reference Compound C.

For assay [3], the target named is T2, Human EphA2 (Ecto), C-terminal polyHis. The assay can be described thus: FP competition vs Reference Compound C (Study 2).

T1 sequence (Q03145 26-538): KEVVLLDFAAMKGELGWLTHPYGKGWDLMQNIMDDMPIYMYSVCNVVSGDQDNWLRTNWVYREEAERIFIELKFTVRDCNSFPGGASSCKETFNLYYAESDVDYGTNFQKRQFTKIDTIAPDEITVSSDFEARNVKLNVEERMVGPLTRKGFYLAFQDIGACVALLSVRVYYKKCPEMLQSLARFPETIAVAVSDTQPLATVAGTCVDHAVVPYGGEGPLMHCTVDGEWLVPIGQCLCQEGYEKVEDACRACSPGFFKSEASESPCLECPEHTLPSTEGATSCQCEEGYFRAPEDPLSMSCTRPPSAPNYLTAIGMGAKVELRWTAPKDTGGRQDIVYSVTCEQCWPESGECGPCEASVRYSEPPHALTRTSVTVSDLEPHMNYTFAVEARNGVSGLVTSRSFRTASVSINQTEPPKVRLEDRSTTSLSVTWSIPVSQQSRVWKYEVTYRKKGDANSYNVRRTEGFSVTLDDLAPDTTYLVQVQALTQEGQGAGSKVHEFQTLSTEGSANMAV
T2 sequence (P29317 24-537): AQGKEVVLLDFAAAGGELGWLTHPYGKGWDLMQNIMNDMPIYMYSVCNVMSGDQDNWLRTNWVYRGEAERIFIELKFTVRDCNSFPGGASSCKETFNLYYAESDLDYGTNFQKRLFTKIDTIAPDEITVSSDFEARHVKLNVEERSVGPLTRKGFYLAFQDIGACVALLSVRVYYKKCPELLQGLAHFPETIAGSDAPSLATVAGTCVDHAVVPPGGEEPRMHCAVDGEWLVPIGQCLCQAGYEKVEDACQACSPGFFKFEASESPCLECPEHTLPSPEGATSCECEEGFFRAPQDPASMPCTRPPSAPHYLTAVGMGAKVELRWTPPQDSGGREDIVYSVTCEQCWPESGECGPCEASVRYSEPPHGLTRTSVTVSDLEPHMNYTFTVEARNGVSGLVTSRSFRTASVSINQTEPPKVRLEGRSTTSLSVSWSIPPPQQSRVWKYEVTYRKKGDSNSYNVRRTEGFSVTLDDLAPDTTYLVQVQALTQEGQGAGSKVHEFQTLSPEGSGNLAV

B1: Compound 89 (peptide)
peptide: [βAla][Sar][Sar][Sar][Sar][Sar][Sar][Sar][Sar][Sar][Sar]ACPLVNPLCLHPGWSCRGQ
modifications: linker 13-20-27 via TATA; not fully specified (C-terminus); printed as (β-Ala)-Sar10-ACPLVNPLCLHPGWSCRGQ
B1: the Ki in assay [1] came to 29.6 nM; in assay [2], 2.86 nM.

ACPLVNPLCMMGGWKCA (linker 2-9-16 via TATA; not fully specified (C-terminus)) [Compound 62] gave a Ki in assay [2] of 67.1 nM.

B2: BCY6035 (peptide)
peptide: Ac-CPLVNPLCLHPGWTCLHG
modifications: linker 1-8-15 via TATA; not fully specified (C-terminus); also: DM1-SS- conjugated, site not given here
notes: Bicycle drug conjugate (BDC)
In turn, B2 came in with an inhibition constant (Ki) in assay [3] of 15.2 nM. This lies in the double-digit nanomolar range.

B3: BCY6036 (peptide)
peptide: Ac-CPLVNPLCLHPGWTCLHG
modifications: linker 1-8-15 via TATA; not fully specified (C-terminus); also: DM1-SS-(Me)- conjugated, site not given here
notes: Bicycle drug conjugate (BDC)
B3: the Ki in assay [3] came to 18.6 nM.

Take ACPLVNPLCNLPGWTCA (linker 2-9-16 via TATA; not fully specified (C-terminus)) [Compound 56]: the Ki in assay [2] was 184 nM. In other words, the sub-micromolar range.

In turn, ACPLVNPLCLHPGWTCLHG (N-terminal (β-Ala)-Sar10; TATA scaffold on the 3 Cys) [Compound 75] came in with a Ki in assay [2] of 2.48 nM.

On to ACPLVNPLCLHPGWSCXGQ (not fully specified; N-terminal (β-Ala)-Sar10; HArg; TATA scaffold on the 3 Cys) [Compound 90], for which the Ki came to 47 nM in assay [1] and 5.41 nM in assay [2].

In the case of CPLVNPLCLHPGWTCLHG (N-terminal Ac; C-terminal -Sar6-(D-K); TATA scaffold on the 3 Cys, also called Compound 77) [BCY6019], the Ki in assay [1] amounted to 48.2 nM; in assay [2] it was 5.41 nM.

As for RPACPLVNPLCLHPGWTCA (linker 4-11-18 via TATA; not fully specified (C-terminus)) [Compound 70], in assay [2], the affinity corresponds to a Ki of 10.1 nM.

As to RPPCPLVNPLCLHPGWTCA (linker 4-11-18 via TATA; not fully specified (C-terminus)) [Compound 71], the Ki in assay [2] came out at 11.1 nM.

For ACPLVNPLCLYGSWKCA (linker 2-9-16 via TATA; not fully specified (C-terminus)) [Compound 63], the Ki in assay [2] was found to be 59 nM.

In assay [2], ACPLVNPLCLMPGWGCA (linker 2-9-16 via TATA; not fully specified (C-terminus)) [Compound 59] yielded a Ki of 114 nM. Against the preceding molecule, the Ki is about 1.9-fold higher.

B4: BCY6038 (peptide)
peptide: Ac-CPLVNPLCLHPGWTCLHG
modifications: linker 1-8-15 via TATA; not fully specified (C-terminus); also: TrpCit-MMAE conjugated, site not given here
notes: Bicycle drug conjugate (BDC)
Consider B4, for which affinity in assay [3] was put at a Ki of 2.8 nM.

B5: Compound 68 (peptide)
peptide: Ac-ARDCPLVNPLCLHPGWTCA
modifications: linker 4-11-18 via TATA; not fully specified (C-terminus); printed as Ac-ARDCPLVNPLCLHPGWTCA-Sar6-(D-K)
B5: the values for the Ki in assay [1] and in assay [2] were 166 nM and 19.3 nM, respectively.

As to AXDCPLVNPLCLHPGWTC (N-terminal (β-Ala)-Sar10; HArg; TATA scaffold on the 3 Cys, also called Compound 67) [BCY6014], the Ki in assay [1] worked out at 61.7 nM; in assay [2] it was 8.51 nM.

B6: Compound 92 (peptide)
peptide: CPLVNPLCLHPGWSCXGQ
modifications: not fully specified; N-terminal Ac; HArg; C-terminal -Sar6-(D-K); TATA scaffold on the 3 Cys
Take B6: the Ki in assay [1] came out at 75.3 nM; in assay [2], 10.6 nM.

The molecule ACPLVNPLCLTSGWKCA (linker 2-9-16 via TATA; not fully specified (C-terminus)) [Compound 52] yielded a Ki in assay [2] of 115 nM.

Consider CPLVNPLCLHPGWSCRGQ (N-terminal Ac; C-terminal -Sar6-(D-K); TATA scaffold on the 3 Cys, also called Compound 91) [BCY6042], for which the Ki in assay [1] was 49.9 nM; in assay [2], 5.98 nM.

B7: Compound 69 (peptide)
peptide: AXDCPLVNPLCLHPGWTCA
modifications: not fully specified; N-terminal Ac; HArg; C-terminal -Sar6-(D-K); TATA scaffold on the 3 Cys
As for B7, the Ki in assay [1] came out at 164 nM; in assay [2], 17.5 nM.

B8: BCY6037 (peptide)
peptide: Ac-CPLVNPLCLHPGWTCLHG
modifications: linker 1-8-15 via TATA; not fully specified (C-terminus); also: ValCit-MMAE conjugated, site not given here
notes: Bicycle drug conjugate (BDC)
B8 registered a Ki in assay [3] of 7.3 nM.

Regarding ARDCPLVNPLCLHPGWTCA (linker 4-11-18 via TATA; not fully specified (C-terminus)) [Compound 65], the Ki was 39.1 nM in assay [1] and 6.05 nM in assay [2].

B9: Compound 76 (peptide)
peptide: ACPLVNPLCLHPGWTCLXG
modifications: not fully specified; N-terminal (β-Ala)-Sar10; D-His; TATA scaffold on the 3 Cys
In the case of B9, the Ki in assay [1] is 75.2 nM; in assay [2], 10 nM.

Molecule ACGFMGLVPCELYCADN (linker 2-10-14 via TATA; not fully specified (C-terminus)) [Compound 51] showed a Ki in assay [2] of 84.4 nM.

B10: Compound 79 (peptide)
peptide: ACPLVNPLCLHPG[2Nal]TCLHG
modifications: linker 2-9-16 via TATA; not fully specified (C-terminus); printed as ACPLVNPLCLHPG(2Nal)TCLHG
In turn, B10 displayed an inhibitory constant (Ki) in assay [2] of 162 nM.

ACPLVNPLCLHPGWSCRGQ (linker 2-9-16 via TATA, also called Compound 87) [BCY6026]: the Ki came out at 18.6 nM in assay [1] and 2.57 nM in assay [2].

As for ACPLVNPLCLLDGWTCA (linker 2-9-16 via TATA; not fully specified (C-terminus)) [Compound 58], the affinity in assay [2] corresponds to a Ki of 38.4 nM. That is a double-digit nanomolar value.

B11: BCY6055 (peptide)
peptide: AXDCPLVNPLCLHPGWTC
modifications: not fully specified; as BCY6014 (N-terminal (β-Ala)-Sar10; HArg; TATA scaffold on the 3 Cys) + DM1-SS-(Me2)-
notes: Bicycle drug conjugate (BDC)
As to B11, the affinity in assay [3], expressed as Ki, was 15.8 nM.

B12: Compound 74 (peptide)
peptide: Ac-CPLVNPLCLHPGWTCLHG
modifications: linker 1-8-15 via TATA; not fully specified (C-terminus); printed as Ac-CPLVNPLCLHPGWTCLHG
The molecule B12 showed a Ki in assay [2] of 1.76 nM.

Regarding ACPLVNPLCLMTGWSCA (linker 2-9-16 via TATA; not fully specified (C-terminus)) [Compound 61], in assay [2], the Ki was 242 nM.

Consider ACPLVNPLCMIGNWTCA (linker 2-9-16 via TATA; not fully specified (C-terminus)) [Compound 60], for which the Ki in assay [2] came out at 96.2 nM.

The values are drawn from patent US20240000957A1 (published 2024).
